Test results as given in US10429300B2, “Surface plasmon resonance approach to monitor protein-ligand interactions” (The Johns Hopkins University, priority 2015, dated 2019).
“Also recorded” adds a separate entry of the source.

T1: rNav1.2a VSD II paddle peptide (V843A, SEQ ID NO: 2) (Rattus norvegicus, UniProt P04775, V843A)
T1 construct: purchased ProteoGenix; host or cells: chemical synthesis (Fmoc solid phase)
T1 sequence (P04775 832-856 V843A): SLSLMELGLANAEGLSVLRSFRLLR

B1: CssIV: β-scorpion toxin from Centruroides suffusus suffusus (protein)
chain: KEGYLVNSYTGCKFECFKLGDNDYCLRECRQQYGKGSGGYCYAFGCWCTHLYEQAVVWPLPNKTCN
B2: AaHII: Nav channel-selective α-scorpion toxin from Androctonus australis hector; model toxin (protein)
chain: VKDGYIVDDVNCTYFCGRNAYCNEECTKLKGESGYCQWASPYGNACYCYKLPDHVRTKGPGRCH

Legend:
[1] = tested on: rNav1.2a/Kv2.1 VSD IV paddle chimera; experiment: Two-electrode voltage-clamp, rNav1.2a/Kv2.1 VSD IV paddle chimera in Xenopus oocytes; type: cell-based, rat
Sequence of rNav1.2a/Kv2.1 VSD IV paddle chimera (P04775 1605-1636 limits assumed, stated change not applied): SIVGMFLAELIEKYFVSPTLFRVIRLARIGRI
Text: The DNA sequence of rat (r)Nav1.2a (provided by A. Goldin, University of California, Irvine, Irvine, Calif.), rKv2.1 (provided by K. J. Swartz, National Institutes of Health), and the rNav1.2a/Kv2.1 VSD II or IV chimera was confirmed by automated DNA sequencing, and cRNA was synthesized using T7 polymerase (mMessage mMachine™ kit; Life Technologies) after linearizing the DNA with appropriate restriction enzymes. Channels were expressed in Xenopus oocytes (obtained from Xenopus 1) and studied after a 1-d incubation after cRNA injection (incubated at 17° C. in 96 mM NaCl, 2 mM KCl, 5 mM HEPES, 1 mM MgCl2, 1.8 mM CaCl2, and 50 μg/ml gentamycin, pH 7.6 with NaOH) using two-electrode voltage-clamp recording techniques (OC-725C; Warner Instruments) with a 150-μl recording chamber. Data were filtered at 4 kHz and digitized at 20 kHz using pClamp™ 10 software (Molecular Devices). Microelectrode resistances were 0.5-1.5 MΩ when filled with 3 M KCl. For Kv chimera channel experiments, the external recording solution contained (mM): 50 KCl, 50 NaCl, 5 HEPES, 1 MgCl2, and 0.3 CaCl2, pH 7.6 with NaOH. For rNav1.2a experiments, the external recording solution contained (mM): 100 NaCl, 5 HEPES, 1 MgCl2, and 1.8 CaCl2, pH 7.6 with NaOH. All experiments were performed at ˜22° C. Leak and background conductances, identified by blocking the channel with agitoxin-2 (provided by K. J. Swartz), have been subtracted for all of the Kv channel currents shown. […] Voltage-activation relationships were obtained by measuring tail currents for Kv channels or steady-state currents and calculating conductance for Nav channels, and a single Boltzmann function was fitted to the data according to I/Imax=[1c+cexp(−zF(Vc−cV1/2)/RT)]^−1, where I/Imax is the normalized tail-current amplitude, z is the equivalent charge, V1/2 is the half-activation voltage, F is Faraday's constant, R is the gas constant, and T is temperature in kelvin. For all channels, voltage-activation relationships were recorded in the absence and presence of toxin. The ratio of currents (I/I0) recorded in the presence (I) and absence (I0) of toxin was calculated for voltages typically ranging from −140 to 10 cmV, depending on the construct. […] The apparent equilibrium dissociation constant (apparent KD) for Kv channels was calculated according to KD=((1/(1c−cFu^1/4))c−c1)[toxin], assuming four independent toxin-binding sites per channel. Results are given as mean±SEM unless noted otherwise. Offline data analysis was performed using Clampfit 10™ (Molecular Devices), Origin 8.0™ (OriginLab), and Excel™ (Microsoft). All chemicals were obtained from Sigma-Aldrich.
Representative sodium currents were elicited by a 50-ms depolarization to a suitable membrane voltage (−20 to −15 mV) before (black) and after toxin addition (green) from a holding voltage of −90 mV. […] For each toxin, K^+ currents were elicited by a 300-ms depolarization to 0 mV from a holding voltage of −90 mV (tail voltage was −60 mV). […] For each toxin, K^+ currents (top) were elicited by a 300-ms depolarization near the foot of the voltage-activation curve (bottom) from a holding voltage of −90 mV.

[2] = target: T1, rNav1.2a VSD II paddle peptide (V843A, SEQ ID NO: 2); experiment: SPR on immobilized rNav1.2a VSD II paddle peptide; type: binding; conditions: for SPR binding to VSD II paddle peptide: 100 nM toxin, 500 fmol peptide
Protocol: SPR experiments were performed at 25° C. on a Biacore™ T200 instrument (GE Healthcare) using 150 mM NaCl, 3 mM EDTA, 0.005% surfactant P20, and 10 mM HEPES-NaOH, pH 7.4, for the coupling protocol or 50 mM phosphate, pH 7.2, as running buffer. Neutravidin (Thermo Fisher Scientific) was immobilized on CM5 sensor chips (GE Healthcare) using an amine coupling chemistry. All chemicals were obtained from Sigma-Aldrich. […] In all SPR experiments, nonspecific binding obtained in the control flow cell was subtracted from the signal obtained in the experimental flow cell. For qualitative binding analysis, toxins (100 nM in running buffer containing 0.1% BSA) were injected at a flow rate of 20 μl/min over 2 min. […] In between injections, the surface of the sensor chip was regenerated by injecting 1 M NaCl (15 s at 30 l/min). The bulk signal caused by refractive index differences between the flow buffer and the buffer containing the analyte was systematically excluded from the data-fitting process. It is worth noting that isolating a paddle motif (ligand) can induce conformational changes that can affect toxin (analyte) efficacy. […] Sensorgrams can reveal such ligand heterogeneity by displaying biphasic dissociation curves that cannot be fitted with the frequently used Langmuir model, which assumes a 1:1 stoichiometry of analyte to ligand. To account for a possible heterogeneity of surface sites, we calculated the rate constants and affinity equilibrium dissociation constants (KD) for AaHII by a fit to a heterogeneous ligand model incorporated into the Biacore T200 Evaluation™ software (v1.0). This model assumes the presence of two sites on the ligand that can bind analyte and can be described by these equations in which A represents the analyte and B1/B2 represents the heterogeneous ligand:
(A) Shown are the CD spectra of the rNav1.2a VSD II and IV paddle peptides used in this paper. […] (B) Representative association and dissociation kinetic curves obtained using SPR after the application of varying concentrations of AaHII (15-2,000 nM) over a sensor chip to which 50 fmol of the rNav1.2a VSD IV paddle peptide was linked. Toxin was applied after obtaining a steady baseline. Colored traces represent toxin binding obtained after subtraction of the signal from the control flow cell. […] Toxin concentrations are indicated on the right in a shade of gray corresponding to the sensorgram. (C) Representative SPR traces after the application of 100 nM KTX, AaHI, AaHII, LqqV, BomIV, TsVII, and CssIV over a sensor chip to which the rNav1.2a VSD II (left) or IV (right) paddle peptide (500 fmol) was linked. Toxin was applied after obtaining a steady baseline. (D) Binding capacities of 100 nM α-scorpion toxins AaHI, AaHII, LqqV, the α-like scorpion toxin BomIV, and the β-scorpion toxins TsVII and CssIV to the VSD II and IV paddle motifs using SPR (error bars represent±SEM). Y-axis represents the maximum RUs obtained after toxin application.
Next, the VSD IV peptide was fixed on SPR sensor chips by adding a K-linked biotin group to the C terminus, resulting in a 32-amino acid peptide altogether (SEQ ID NO: 4 which is mutated SEQ ID NO: 3 of FIG. 2A).

[3] = tested on: rNav1.2a; conditions: cited from earlier work

| Molecule | effect on VSD IV chimera voltage-activation relationship ([1]; 1 μM toxin) | SPR binding to VSD II paddle peptide [2] | effect on WT rNav1.2a gating ([3]; 100 nM toxin) | Kd ([1]; 100 nM AaHII, n=3, mean±SEM, read-out: apparent KD) [nM] | K+ current inhibition of VSD IV chimera ([1]; 100 nM toxin) | SPR effect on VSD II paddle motif ([2]; up to 20 μM toxin) | Kd ([3]; WT rNav1.2a, read-out: affinity of the toxin for WT rNav1.2a) [nM] |
| --- | --- | --- | --- | --- | --- | --- | --- |
| B1 | does not influence | no RUs could be detected | clearly influences WT rNav1.2a gating |  |  |  |  |
| B2 |  | a response was not obtained |  | 1010 | influenced less; also recorded: influenced to a much lesser extent | not noticed | ~5 |
